Results taken from patent US20230235013A1 (MABSOLVE, published 2023).

Target: T1, Histidine-tagged recombinant human FcγRI (CD64) (human, UniProt P12314 16-288)
T1 construct: bought; also called Sino Biological Cat. No. 12056-H08H
Assay: SPR, culture supernatant, captured His-FcγRI;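 also: biacore T200 SPR at 25 °C, anti-His capture, supernatants of HEK293 cells expressing IgG1 Fc variants injected 1 min, reference-subtracted response read 55 s after injection start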

Binder | Mean binding response
anti-CD20 human IgG1 L234A/L235A/G236R (antibody, also called 1-2; 2-2; copies: 2 + 2) heavy: not shown light: QIVLSQSPAILSASPGEKVTMTCRASSSVSYIHWFQQKPGSSPKPWIYATSNLASGVPVRFSGSGSGTSYSLTISRVEAEDAATYYCQQWTSNPPTFGGGTKLEIKRTVAAPSVFIFPPSDEQLKSGTASVVCLLNNFYPREAKVQWKVDNALQSGNSQESVTEQDSKDSTYSLSSTLTLSKADYEKHKVYACEVTHQGLSSPVTKSFNRGEC | 30.7 RU
anti-CD20 human IgG1 L234A/L235E/G236R (antibody, also called 1-4; copies: 2 + 2) heavy: not shown light: QIVLSQSPAILSASPGEKVTMTCRASSSVSYIHWFQQKPGSSPKPWIYATSNLASGVPVRFSGSGSGTSYSLTISRVEAEDAATYYCQQWTSNPPTFGGGTKLEIKRTVAAPSVFIFPPSDEQLKSGTASVVCLLNNFYPREAKVQWKVDNALQSGNSQESVTEQDSKDSTYSLSSTLTLSKADYEKHKVYACEVTHQGLSSPVTKSFNRGEC | 31.7 RU
anti-CD20 human IgG1 L234A/L235R/G236R (antibody, also called 1-13; copies: 2 + 2) heavy: not shown light: QIVLSQSPAILSASPGEKVTMTCRASSSVSYIHWFQQKPGSSPKPWIYATSNLASGVPVRFSGSGSGTSYSLTISRVEAEDAATYYCQQWTSNPPTFGGGTKLEIKRTVAAPSVFIFPPSDEQLKSGTASVVCLLNNFYPREAKVQWKVDNALQSGNSQESVTEQDSKDSTYSLSSTLTLSKADYEKHKVYACEVTHQGLSSPVTKSFNRGEC | 26.9 RU
anti-CD20 human IgG1 L234A/L235I/G236R (antibody, also called 1-7; copies: 2 + 2) heavy: not shown light: QIVLSQSPAILSASPGEKVTMTCRASSSVSYIHWFQQKPGSSPKPWIYATSNLASGVPVRFSGSGSGTSYSLTISRVEAEDAATYYCQQWTSNPPTFGGGTKLEIKRTVAAPSVFIFPPSDEQLKSGTASVVCLLNNFYPREAKVQWKVDNALQSGNSQESVTEQDSKDSTYSLSSTLTLSKADYEKHKVYACEVTHQGLSSPVTKSFNRGEC | 28.4 RU
anti-CD20 human IgG1 L234A/L235G/G236R (antibody, also called 1-5; copies: 2 + 2) heavy: not shown light: QIVLSQSPAILSASPGEKVTMTCRASSSVSYIHWFQQKPGSSPKPWIYATSNLASGVPVRFSGSGSGTSYSLTISRVEAEDAATYYCQQWTSNPPTFGGGTKLEIKRTVAAPSVFIFPPSDEQLKSGTASVVCLLNNFYPREAKVQWKVDNALQSGNSQESVTEQDSKDSTYSLSSTLTLSKADYEKHKVYACEVTHQGLSSPVTKSFNRGEC | 27.6 RU
anti-CD20 human IgG1 L234A/L235Q/G236R (antibody, also called 1-12; copies: 2 + 2) heavy: not shown light: QIVLSQSPAILSASPGEKVTMTCRASSSVSYIHWFQQKPGSSPKPWIYATSNLASGVPVRFSGSGSGTSYSLTISRVEAEDAATYYCQQWTSNPPTFGGGTKLEIKRTVAAPSVFIFPPSDEQLKSGTASVVCLLNNFYPREAKVQWKVDNALQSGNSQESVTEQDSKDSTYSLSSTLTLSKADYEKHKVYACEVTHQGLSSPVTKSFNRGEC | 34.3 RU
anti-CD20 human IgG1 L234A/L235H/G236R (antibody, also called 1-6; copies: 2 + 2) heavy: not shown light: QIVLSQSPAILSASPGEKVTMTCRASSSVSYIHWFQQKPGSSPKPWIYATSNLASGVPVRFSGSGSGTSYSLTISRVEAEDAATYYCQQWTSNPPTFGGGTKLEIKRTVAAPSVFIFPPSDEQLKSGTASVVCLLNNFYPREAKVQWKVDNALQSGNSQESVTEQDSKDSTYSLSSTLTLSKADYEKHKVYACEVTHQGLSSPVTKSFNRGEC | 23 RU
anti-CD20 human IgG1 L234A/L235K/G236R (antibody, also called 1-8; copies: 2 + 2) heavy: not shown light: QIVLSQSPAILSASPGEKVTMTCRASSSVSYIHWFQQKPGSSPKPWIYATSNLASGVPVRFSGSGSGTSYSLTISRVEAEDAATYYCQQWTSNPPTFGGGTKLEIKRTVAAPSVFIFPPSDEQLKSGTASVVCLLNNFYPREAKVQWKVDNALQSGNSQESVTEQDSKDSTYSLSSTLTLSKADYEKHKVYACEVTHQGLSSPVTKSFNRGEC | 34.2 RU
anti-CD20 human IgG1 L234A/L235D/G236R (antibody, also called 1-3; copies: 2 + 2) heavy: not shown light: QIVLSQSPAILSASPGEKVTMTCRASSSVSYIHWFQQKPGSSPKPWIYATSNLASGVPVRFSGSGSGTSYSLTISRVEAEDAATYYCQQWTSNPPTFGGGTKLEIKRTVAAPSVFIFPPSDEQLKSGTASVVCLLNNFYPREAKVQWKVDNALQSGNSQESVTEQDSKDSTYSLSSTLTLSKADYEKHKVYACEVTHQGLSSPVTKSFNRGEC | 28 RU
anti-CD20 human IgG1 L234A/G236R (antibody, also called 1-9; copies: 2 + 2) heavy: not shown light: QIVLSQSPAILSASPGEKVTMTCRASSSVSYIHWFQQKPGSSPKPWIYATSNLASGVPVRFSGSGSGTSYSLTISRVEAEDAATYYCQQWTSNPPTFGGGTKLEIKRTVAAPSVFIFPPSDEQLKSGTASVVCLLNNFYPREAKVQWKVDNALQSGNSQESVTEQDSKDSTYSLSSTLTLSKADYEKHKVYACEVTHQGLSSPVTKSFNRGEC | 8 RU
anti-CD20 human IgG1 L234A/L235M/G236R (antibody, also called 1-10; copies: 2 + 2) heavy: not shown light: QIVLSQSPAILSASPGEKVTMTCRASSSVSYIHWFQQKPGSSPKPWIYATSNLASGVPVRFSGSGSGTSYSLTISRVEAEDAATYYCQQWTSNPPTFGGGTKLEIKRTVAAPSVFIFPPSDEQLKSGTASVVCLLNNFYPREAKVQWKVDNALQSGNSQESVTEQDSKDSTYSLSSTLTLSKADYEKHKVYACEVTHQGLSSPVTKSFNRGEC | 27.4 RU

Other lines, results leading:

Mean binding response | Binder
27.3 RU | anti-CD20 human IgG1 L234D/L235G/G236R (antibody, also called 1-20; copies: 2 + 2) heavy: QVQLQQPGAELVKPGASVKMSCKASGYTFTSYNMHWVKQTPGRGLEWIGAIYPGNGDTSYNQKFKGKATLTADKSSSTAYMQLSSLTSEDSAVYYCARSTYYGGDWYFNVWGAGTTVTVSSASTKGPSVFPLAPSSKSTSGGTAALGCLVKDYFPEPVTVSWNSGALTSGVHTFPAVLQSSGLYSLSSVVTVPSSSLGTQTYICNVNHKPSNTKVDKKVEPKSCDKTHTCPPCPAPEDGRGPSVFLFPPKPKDTLMISRTPEVTCVVVDVSHEDPEVKFNWYVDGVEVHNAKTKPREEQYNSTYRVVSVLTVLHQDWLNGKEYKCKVSNKALPAPIEKTISKAKGQPREPQVYTLPPSRDELTKNQVSLTCLVKGFYPSDIAVEWESNGQPENNYKTTPPVLDSDGSFFLYSKLTVDKSRWQQGNVFSCSVMHEALHNHYTQKSLSLSPGK light: QIVLSQSPAILSASPGEKVTMTCRASSSVSYIHWFQQKPGSSPKPWIYATSNLASGVPVRFSGSGSGTSYSLTISRVEAEDAATYYCQQWTSNPPTFGGGTKLEIKRTVAAPSVFIFPPSDEQLKSGTASVVCLLNNFYPREAKVQWKVDNALQSGNSQESVTEQDSKDSTYSLSSTLTLSKADYEKHKVYACEVTHQGLSSPVTKSFNRGEC
11.9 RU | anti-CD20 human IgG1 L234D/G236R (antibody, also called 1-24; 2-8; copies: 2 + 2) heavy: not shown light: QIVLSQSPAILSASPGEKVTMTCRASSSVSYIHWFQQKPGSSPKPWIYATSNLASGVPVRFSGSGSGTSYSLTISRVEAEDAATYYCQQWTSNPPTFGGGTKLEIKRTVAAPSVFIFPPSDEQLKSGTASVVCLLNNFYPREAKVQWKVDNALQSGNSQESVTEQDSKDSTYSLSSTLTLSKADYEKHKVYACEVTHQGLSSPVTKSFNRGEC
25.8 RU | anti-CD20 human IgG1 L234A/L235V/G236R (antibody, also called 1-16; copies: 2 + 2) heavy: not shown light: QIVLSQSPAILSASPGEKVTMTCRASSSVSYIHWFQQKPGSSPKPWIYATSNLASGVPVRFSGSGSGTSYSLTISRVEAEDAATYYCQQWTSNPPTFGGGTKLEIKRTVAAPSVFIFPPSDEQLKSGTASVVCLLNNFYPREAKVQWKVDNALQSGNSQESVTEQDSKDSTYSLSSTLTLSKADYEKHKVYACEVTHQGLSSPVTKSFNRGEC
22.1 RU | anti-CD20 human IgG1 L234D/L235E/G236R (antibody, also called 1-19; copies: 2 + 2) heavy: QVQLQQPGAELVKPGASVKMSCKASGYTFTSYNMHWVKQTPGRGLEWIGAIYPGNGDTSYNQKFKGKATLTADKSSSTAYMQLSSLTSEDSAVYYCARSTYYGGDWYFNVWGAGTTVTVSSASTKGPSVFPLAPSSKSTSGGTAALGCLVKDYFPEPVTVSWNSGALTSGVHTFPAVLQSSGLYSLSSVVTVPSSSLGTQTYICNVNHKPSNTKVDKKVEPKSCDKTHTCPPCPAPEDERGPSVFLFPPKPKDTLMISRTPEVTCVVVDVSHEDPEVKFNWYVDGVEVHNAKTKPREEQYNSTYRVVSVLTVLHQDWLNGKEYKCKVSNKALPAPIEKTISKAKGQPREPQVYTLPPSRDELTKNQVSLTCLVKGFYPSDIAVEWESNGQPENNYKTTPPVLDSDGSFFLYSKLTVDKSRWQQGNVFSCSVMHEALHNHYTQKSLSLSPGK light: QIVLSQSPAILSASPGEKVTMTCRASSSVSYIHWFQQKPGSSPKPWIYATSNLASGVPVRFSGSGSGTSYSLTISRVEAEDAATYYCQQWTSNPPTFGGGTKLEIKRTVAAPSVFIFPPSDEQLKSGTASVVCLLNNFYPREAKVQWKVDNALQSGNSQESVTEQDSKDSTYSLSSTLTLSKADYEKHKVYACEVTHQGLSSPVTKSFNRGEC
22 RU | anti-CD20 human IgG1 L234D/L235D/G236R (antibody, also called 1-18; copies: 2 + 2) heavy: QVQLQQPGAELVKPGASVKMSCKASGYTFTSYNMHWVKQTPGRGLEWIGAIYPGNGDTSYNQKFKGKATLTADKSSSTAYMQLSSLTSEDSAVYYCARSTYYGGDWYFNVWGAGTTVTVSSASTKGPSVFPLAPSSKSTSGGTAALGCLVKDYFPEPVTVSWNSGALTSGVHTFPAVLQSSGLYSLSSVVTVPSSSLGTQTYICNVNHKPSNTKVDKKVEPKSCDKTHTCPPCPAPEDDRGPSVFLFPPKPKDTLMISRTPEVTCVVVDVSHEDPEVKFNWYVDGVEVHNAKTKPREEQYNSTYRVVSVLTVLHQDWLNGKEYKCKVSNKALPAPIEKTISKAKGQPREPQVYTLPPSRDELTKNQVSLTCLVKGFYPSDIAVEWESNGQPENNYKTTPPVLDSDGSFFLYSKLTVDKSRWQQGNVFSCSVMHEALHNHYTQKSLSLSPGK light: QIVLSQSPAILSASPGEKVTMTCRASSSVSYIHWFQQKPGSSPKPWIYATSNLASGVPVRFSGSGSGTSYSLTISRVEAEDAATYYCQQWTSNPPTFGGGTKLEIKRTVAAPSVFIFPPSDEQLKSGTASVVCLLNNFYPREAKVQWKVDNALQSGNSQESVTEQDSKDSTYSLSSTLTLSKADYEKHKVYACEVTHQGLSSPVTKSFNRGEC
29.6 RU | anti-CD20 human IgG1 L234D/L235A/G236R (antibody, also called 1-17; copies: 2 + 2) heavy: not shown light: QIVLSQSPAILSASPGEKVTMTCRASSSVSYIHWFQQKPGSSPKPWIYATSNLASGVPVRFSGSGSGTSYSLTISRVEAEDAATYYCQQWTSNPPTFGGGTKLEIKRTVAAPSVFIFPPSDEQLKSGTASVVCLLNNFYPREAKVQWKVDNALQSGNSQESVTEQDSKDSTYSLSSTLTLSKADYEKHKVYACEVTHQGLSSPVTKSFNRGEC
